BY-kinase A1B2 from Staphylococcus aureus
Radioactivity incorporated in CapO (cpm); 50 pmol A1B2, 50 pmole CapO, no BYK001, incubation 0.5 min (CapO): 3950 cpm | Radioactivity incorporated in CapO (cpm); 50 pmol A1B2, 50 pmole CapO, no BYK001, incubation 1 min (CapO): 7040 cpm | Radioactivity incorporated in CapO (cpm); 50 pmol A1B2, 50 pmole CapO, no BYK001, incubation 2 min (CapO): 17400 cpm | Radioactivity incorporated in CapO (cpm); 50 pmol A1B2, 50 pmole CapO, no BYK001, incubation 5 min (CapO): 34700 cpm | Radioactivity incorporated in A1B2 (cpm); 50 pmole BYK001, 50 pmole A1B2, incubation 0.5 min (BYK001): 29200 cpm | Radioactivity incorporated in A1B2 (cpm); 50 pmole BYK001, 50 pmole A1B2, incubation 1 min (BYK001): 71700 cpm | Radioactivity incorporated in A1B2 (cpm); 50 pmole BYK001, 50 pmole A1B2, incubation 2 min (BYK001): 133000 cpm | Radioactivity incorporated in A1B2 (cpm); 50 pmole BYK001, 50 pmole A1B2, incubation 5 min (BYK001): 326000 cpm | Radioactivity incorporated in A1B2 (cpm); 500 pmole BYK001, 50 pmole A1B2, incubation 0.5 min (BYK001): 30700 cpm | Radioactivity incorporated in A1B2 (cpm); 500 pmole BYK001, 50 pmole A1B2, incubation 1 min (BYK001): 72500 cpm | Radioactivity incorporated in A1B2 (cpm); 500 pmole BYK001, 50 pmole A1B2, incubation 2 min (BYK001): 134000 cpm | Radioactivity incorporated in A1B2 (cpm); 500 pmole BYK001, 50 pmole A1B2, incubation 5 min (BYK001): 325000 cpm | Radioactivity incorporated in A1B2 (cpm); 5000 pmole BYK001, 50 pmole A1B2, incubation 0.5 min (BYK001): 29900 cpm | Radioactivity incorporated in A1B2 (cpm); 5000 pmole BYK001, 50 pmole A1B2, incubation 1 min (BYK001): 72500 cpm | Radioactivity incorporated in A1B2 (cpm); 5000 pmole BYK001, 50 pmole A1B2, incubation 2 min (BYK001): 141000 cpm | Radioactivity incorporated in A1B2 (cpm); 5000 pmole BYK001, 50 pmole A1B2, incubation 5 min (BYK001): 324000 cpm | Radioactivity incorporated in CapO (cpm); 50 pmole BYK001, 50 pmol A1B2, 50 pmole CapO, incubation 0.5 min (BYK001): 3560 cpm | Radioactivity incorporated in CapO (cpm); 50 pmole BYK001, 50 pmol A1B2, 50 pmole CapO, incubation 1 min (BYK001): 6390 cpm | Radioactivity incorporated in CapO (cpm); 50 pmole BYK001, 50 pmol A1B2, 50 pmole CapO, incubation 2 min (BYK001): 15500 cpm | Radioactivity incorporated in CapO (cpm); 50 pmole BYK001, 50 pmol A1B2, 50 pmole CapO, incubation 5 min (BYK001): 31900 cpm | Radioactivity incorporated in CapO (cpm); 500 pmole BYK001, 50 pmol A1B2, 50 pmole CapO, incubation 0.5 min (BYK001): 3500 cpm | Radioactivity incorporated in CapO (cpm); 500 pmole BYK001, 50 pmol A1B2, 50 pmole CapO, incubation 1 min (BYK001): 6300 cpm | Radioactivity incorporated in CapO (cpm); 500 pmole BYK001, 50 pmol A1B2, 50 pmole CapO, incubation 2 min (BYK001): 15500 cpm | Radioactivity incorporated in CapO (cpm); 500 pmole BYK001, 50 pmol A1B2, 50 pmole CapO, incubation 5 min (BYK001): 31300 cpm | Radioactivity incorporated in CapO (cpm); 5000 pmole BYK001, 50 pmol A1B2, 50 pmole CapO, incubation 0.5 min (BYK001): 3510 cpm | Radioactivity incorporated in CapO (cpm); 5000 pmole BYK001, 50 pmol A1B2, 50 pmole CapO, incubation 1 min (BYK001): 6320 cpm | Radioactivity incorporated in CapO (cpm); 5000 pmole BYK001, 50 pmol A1B2, 50 pmole CapO, incubation 2 min (BYK001): 15500 cpm | Radioactivity incorporated in CapO (cpm); 5000 pmole BYK001, 50 pmol A1B2, 50 pmole CapO, incubation 5 min (BYK001): 31000 cpm
